Data reported in patent US20050137135A1 (priority 2002, published 2005).
Square brackets hold non-standard residues; d marks the D form. Ends that are not written are not given here. Peptide text beside a SMILES is read from it. Ahx = NCCCCCC(=O)O

T1: rat pancreatic islet (wild type) GIP-receptor (Rattus norvegicus, UniProt P43219)
T1 construct: expressed in transfected cells; host or cells: CHO-K1 (Chinese hamster ovary)
T1 sequence (P43219 19-455): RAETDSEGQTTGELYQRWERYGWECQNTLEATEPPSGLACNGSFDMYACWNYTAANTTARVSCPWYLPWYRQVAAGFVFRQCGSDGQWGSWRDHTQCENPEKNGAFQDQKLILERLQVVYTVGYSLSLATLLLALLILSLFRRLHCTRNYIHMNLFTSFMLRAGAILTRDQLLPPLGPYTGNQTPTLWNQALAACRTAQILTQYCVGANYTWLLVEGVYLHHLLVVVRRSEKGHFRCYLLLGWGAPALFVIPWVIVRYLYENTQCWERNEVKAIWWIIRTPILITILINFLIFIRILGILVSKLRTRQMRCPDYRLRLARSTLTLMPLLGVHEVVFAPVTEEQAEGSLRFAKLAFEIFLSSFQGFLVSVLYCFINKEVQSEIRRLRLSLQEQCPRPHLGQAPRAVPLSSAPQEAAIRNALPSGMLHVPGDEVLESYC

T2: rat pancreatic islet (wild type) GIP-receptor stably expressed on CHO-K1 cells (rat, UniProt P43219 19-455)
T2 construct: whole, on cells; also called wtGIPR cells; wtGIP-R1 cells
T2 sequence (looked up): T1 sequence (P43219 19-455)

B1: GIP(1-6)(19-30)NH2 (peptide, UniProt P09681 52-57, looked up)
peptide: YAEGTFQQDFVNWLLAQK-NH2
notes: range 1-6;range 19-30; Core deletion, no linker (formula 5, C not used, truncated at residue 30)
B2: GIP(1-6)(AAAA)(19-30)NH2 (peptide)
peptide: YAEGTFAAAAQQDFVNWLLAQK-NH2
notes: range 1-6;range 19-30; also called GIP(l-6)(AAAA)(19-30)NH2
B3: GIP(1-6)(EKEK)(19-30)NH2 (peptide)
peptide: YAEGTFEKEKQQDFVNWLLAQK-NH2
notes: range 1-6;range 19-30
B4: GIP(1-6)(EKEEKEKEEKE)(19-30)NH2 (peptide)
peptide: YAEGTFEKEEKEKEEKEQQDFVNWLLAQK-NH2
notes: range 1-6;range 19-30; The expected mass 3574.0 fits the 11-residue linker as printed
B5: GIP(1-6)(Ahx)1(19-30)NH2 (peptide, UniProt P09681 52-57, looked up)
peptide: YAEGTF[Ahx]QQDFVNWLLAQK-NH2
modifications: N-terminus assumed
SMILES: CC(C)C[C@H](NC(=O)[C@H](CC(C)C)NC(=O)[C@H](Cc1c[nH]c2ccccc12)NC(=O)[C@H](CC(N)=O)NC(=O)[C@@H](NC(=O)[C@H](Cc1ccccc1)NC(=O)[C@H](CC(=O)O)NC(=O)[C@H](CCC(N)=O)NC(=O)[C@H](CCC(N)=O)NC(=O)CCCCCNC(=O)[C@H](Cc1ccccc1)NC(=O)[C@@H](NC(=O)CNC(=O)[C@H](CCC(=O)O)NC(=O)[C@H](C)NC(=O)[C@@H](N)Cc1ccc(O)cc1)[C@@H](C)O)C(C)C)C(=O)N[C@@H](C)C(=O)N[C@@H](CCC(N)=O)C(=O)N[C@@H](CCCCN)C(N)=O
notes: range 52-57
B6: GIP(1-6)(Ahx)2(19-30)NH2 (peptide, UniProt P09681 52-57, looked up)
peptide: YAEGTF[Ahx][Ahx]QQDFVNWLLAQK-NH2
modifications: N-terminus assumed
SMILES: CC(C)C[C@H](NC(=O)[C@H](CC(C)C)NC(=O)[C@H](Cc1c[nH]c2ccccc12)NC(=O)[C@H](CC(N)=O)NC(=O)[C@@H](NC(=O)[C@H](Cc1ccccc1)NC(=O)[C@H](CC(=O)O)NC(=O)[C@H](CCC(N)=O)NC(=O)[C@H](CCC(N)=O)NC(=O)CCCCCNC(=O)CCCCCNC(=O)[C@H](Cc1ccccc1)NC(=O)[C@@H](NC(=O)CNC(=O)[C@H](CCC(=O)O)NC(=O)[C@H](C)NC(=O)[C@@H](N)Cc1ccc(O)cc1)[C@@H](C)O)C(C)C)C(=O)N[C@@H](C)C(=O)N[C@@H](CCC(N)=O)C(=O)N[C@@H](CCCCN)C(N)=O
notes: range 52-57
B7: GIP(1-6)(Ahx)3(19-30)NH2 (peptide, UniProt P09681 52-57, looked up)
peptide: YAEGTF[Ahx][Ahx][Ahx]QQDFVNWLLAQK-NH2
modifications: N-terminus assumed
SMILES: CC(C)C[C@H](NC(=O)[C@H](CC(C)C)NC(=O)[C@H](Cc1c[nH]c2ccccc12)NC(=O)[C@H](CC(N)=O)NC(=O)[C@@H](NC(=O)[C@H](Cc1ccccc1)NC(=O)[C@H](CC(=O)O)NC(=O)[C@H](CCC(N)=O)NC(=O)[C@H](CCC(N)=O)NC(=O)CCCCCNC(=O)CCCCCNC(=O)CCCCCNC(=O)[C@H](Cc1ccccc1)NC(=O)[C@@H](NC(=O)CNC(=O)[C@H](CCC(=O)O)NC(=O)[C@H](C)NC(=O)[C@@H](N)Cc1ccc(O)cc1)[C@@H](C)O)C(C)C)C(=O)N[C@@H](C)C(=O)N[C@@H](CCC(N)=O)C(=O)N[C@@H](CCCCN)C(N)=O
notes: range 52-57
B8: GIP(1-14)(19-30)NH2 (peptide, UniProt P09681 52-65, looked up)
peptide: YAEGTFISDYSIAMQQDFVNWLLAQK-NH2
notes: range 1-14;range 19-30; Core deletion, no linker (formula 6, D unused, truncated at residue 30)
B9: GIP(1-14)(AAAA)(19-30)NH2 (peptide)
peptide: YAEGTFISDYSIAMAAAAQQDFVNWLLAQK-NH2
notes: range 1-14;range 19-30
B10: GIP(1-14)(EKEK)(19-30)NH2 (peptide)
peptide: YAEGTFISDYSIAMEKEKQQDFVNWLLAQK-NH2
notes: range 1-14;range 19-30

Tests used:
[1] = target: T1, rat pancreatic islet (wild type) GIP-receptor; test: cAMP production in CHO-K1 cells expressing the GIP-receptor (wtGIP-R1 cells); assay type: cell-based; conditions: Table 3; cyclic AMP stimulated by 20 μM peptide if plateau levels were not achieved
Procedure: (§1) Cells were cultured in DMEM/F12, supplemented with 10% newborn calf serum, 50 units/ml penicillin G, and 50 μg/ml streptomycin (Culture media and antibiotics from Gibco BRL, Life Technologies). Cells were grown in 75 cm^2 flasks until 80-90% confluent, when they were split and seeded onto 24 well plates at a density of 50,000 cells/well. Experiments were carried out 48 h later.
Cells were extracted with 70% ethanol and cAMP levels measured by radioimmunoassay (Biomedical Technologies, Stoughton, Mass.). Data are expressed as fmol/1000 cells or % maximal GIP1-42-stimulated cAMP production (inhibition experiments).

[2] = target: T1, rat pancreatic islet (wild type) GIP-receptor; test: biochemical; assay type: binding; conditions: read-out: Receptor Binding % Displacement at 20 μM
Procedure: as §1
(§2) Binding studies using ^125I-labeled spGIP1-42, purified by high performance liquid chromatography (HPLC), were performed essentially as described previously-[21]. wtGIP-R1 Cells (1-5×10^5/well) were washed twice at 4° C. in binding buffer (BB), consisting of DMEM/F12 (GIBCO), 15 mM HEPES, 0.1% bovine serum albumin (BSA), 1% Trasylol (aprotinin; Bayer), pH 7.4. They were incubated for 12-16 h at 4° C. with ^125I-spGIP (50,000 cpm) in the presence or absence of unlabeled GIP1-42 or analogue. Following incubation, cells were washed twice with ice cold buffer, solubilized with 0.1 M NaOH (1 ml), and transferred to culture tubes for counting of cell-associated radioactivity. Nonspecific binding was defined as that measured in the presence of 1 μM GIP1-42 or GIP1-30, and specific binding expressed as % of binding in the absence of competitor (% B/Bo).

[3] = target: T2, rat pancreatic islet (wild type) …; test: displacement of 125I-GIP from CHO-K1 cells transfected with rat GIP receptor, 20 µM peptide
Procedure: as §1, with “cm²” for “cm^2”
as §2, with “¹²⁵I-labeled spGIP₁₋₄₂,” for “^125I-labeled spGIP1-42,”, “(1-5×10⁵/well)” for “(1-5×10^5/well)”, “¹²⁵I-spGIP” for “^125I-spGIP”, “GIP₁₋₄₂” for “GIP1-42”, “GIP₁₋₃₀,” for “GIP1-30,”

[4] = target: T2, rat pancreatic islet (wild type) …; test: cell-based or functional assay
[5] = target: T2, rat pancreatic islet (wild type) …; test: competition with 125I-GIP on CHO-K1 cells transfected with rat GIP receptor
Procedure: as §1, with “cm²” for “cm^2”
as §2, with “¹²⁵I-labeled spGIP₁₋₄₂,” for “^125I-labeled spGIP1-42,”, “(1-5×10⁵/well)” for “(1-5×10^5/well)”, “¹²⁵I-spGIP” for “^125I-spGIP”, “GIP₁₋₄₂” for “GIP1-42”, “GIP₁₋₃₀,” for “GIP1-30,”

Molecule	cAMP Production Max. cAMP (Fold Basal) [1] [Fold Basal]	inhibition at 20 µM [2] [%]	% Displacement at 20 µM [3] [%]	Max. cAMP (Fold Basal) [4] [fold basal]	IC50 [5] [nM]	cAMP Production EC50 [4] [nM]
CC[C@H](C)[C@H](NC(=O)[C@H](CO)NC(=O)[C@H](Cc1ccc(O)cc1)NC(=O)[C@H](CC(=O)O)NC(=O)[C@H](CO)NC(=O)[C@@H](NC(=O)[C@H](Cc1ccccc1)NC(=O)[C@@H](NC(=O)CNC(=O)[C@H](CCC(=O)O)NC(=O)[C@H](C)NC(=O)[C@@H](N)Cc1ccc(O)cc1)[C@@H](C)O)[C@@H](C)CC)C(=O)N[C@@H](C)C(=O)N[C@@H](CCSC)C(=O)NCCCCCC(=O)NCCCCCC(=O)NCCCCCC(=O)N[C@@H](CCC(N)=O)C(=O)N[C@@H](CCC(N)=O)C(=O)N[C@@H](CC(=O)O)C(=O)N[C@@H](Cc1ccccc1)C(=O)N[C@H](C(=O)N[C@@H](CC(N)=O)C(=O)N[C@@H](Cc1c[nH]c2ccccc12)C(=O)N[C@@H](CC(C)C)C(=O)N[C@@H](CC(C)C)C(=O)N[C@@H](C)C(=O)N[C@@H](CCC(N)=O)C(=O)N[C@@H](CCCCN)C(N)=O)C(C)C [GlP(1-14)(Ahx)3(19-30)NH2] (H-YAEGTFISDYSIAM[Ahx][Ahx][Ahx]QQDFVNWLLAQK-NH2; N-terminus assumed)	49.5 ± 1.6	82.7 ± 3.2	–	–	–	–
YAEGTFAAAAQQDFVNWLLAQK-NH2 [GIP(l-6)(AAAA)(19-30)NH2]	7.21 ± 0.99	88.7 ± 3	–	–	–	–
YAEGTFEKEEKEKEEKEQQDFVNWLLAQK-NH2	84.9 ± 8.1	75.1 ± 2.7	–	–	–	–
YAEGTFEKEKQQDFVNWLLAQK-NH2 [GIP(1-6)(EKEK)(19-30)NH2]	8.17 ± 0.87	86.8 ± 1.6	–	–	–	–
YAEGTFISDYSIAMAAAAQQDFVNWLLAQK-NH2 [GIP(1-14)(AAAA)(19-30)NH2]	82.1 ± 2.8	100 ± 0.9	–	–	–	–
YAEGTFISDYSIAMEKEKQQDFVNWLLAQK-NH2 [GIP(1-14)(EKEK)(19-30)NH2]	80.6 ± 5.6	98.7 ± 1.1	–	–	–	–
YAEGTFISDYSIAMQQDFVNWLLAQK-NH2 [GIP(1-14)(19-30)NH2]	127 ± 22	95.4 ± 0.7	–	–	–	–
YAEGTFQQDFVNWLLAQK-NH2 [GIP(1-6)(19-30)NH2]	1.81 ± 0.42	88.2 ± 0.7	–	–	–	–
B1	–	–	88.2	1.81	2740	–
B2	–	–	88.7	7.21	2410	–
B3	–	–	86.8	8.17	2090	–
B4	–	–	75.1	84.9	4270	8390
B5	–	–	62	95.9	8730	14500
B6	–	–	75.3	2.55	4980	–
B7	–	–	67.1	13.5	4030	–
B8	–	–	95.4	127	1370	78.7
B9	–	–	100	82.1	66.3	0.0587
B10	–	–	98.7	80.6	26	0.077
